Test results taken from patent publication US20260193365A1 (GRANITE BIO, published 2026).

Columns and labels:
[1] = target: T1, human CCR2 (human, UniProt O18793 1-360 (rhesus entry)); test: cell binding, human monocytes
T1 construct: On primary human monocytes/PBMC and on human-CCR2 transfected CHO cells; also called C-C Motif Chemokine Receptor 2; CD192
T1 chain: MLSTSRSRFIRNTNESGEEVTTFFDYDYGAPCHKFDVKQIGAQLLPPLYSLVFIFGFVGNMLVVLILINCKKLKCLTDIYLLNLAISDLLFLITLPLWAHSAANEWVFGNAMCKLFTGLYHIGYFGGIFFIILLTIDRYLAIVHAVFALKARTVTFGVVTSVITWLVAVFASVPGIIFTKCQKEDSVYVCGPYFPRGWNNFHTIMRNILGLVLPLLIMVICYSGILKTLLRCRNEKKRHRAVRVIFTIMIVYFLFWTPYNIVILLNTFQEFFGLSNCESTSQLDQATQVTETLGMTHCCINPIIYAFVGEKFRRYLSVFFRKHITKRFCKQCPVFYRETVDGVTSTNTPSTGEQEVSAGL

[2] = target: T1, human CCR2; test: cell binding, human PBMCs
[3] = target: T2, Marmoset monkey (Callithrix jacchus) CCR2 (Marmoset monkey (Callithrix jacchus), UniProt O18793 1-360); test: cell binding, primary marmoset monocytes (marmoset blood)
T2 construct: On primary marmoset monocytes (marmoset blood/PBMC); they may hold print errors; also called marmoset CCR2; marmoset CCR2b
T2 chain: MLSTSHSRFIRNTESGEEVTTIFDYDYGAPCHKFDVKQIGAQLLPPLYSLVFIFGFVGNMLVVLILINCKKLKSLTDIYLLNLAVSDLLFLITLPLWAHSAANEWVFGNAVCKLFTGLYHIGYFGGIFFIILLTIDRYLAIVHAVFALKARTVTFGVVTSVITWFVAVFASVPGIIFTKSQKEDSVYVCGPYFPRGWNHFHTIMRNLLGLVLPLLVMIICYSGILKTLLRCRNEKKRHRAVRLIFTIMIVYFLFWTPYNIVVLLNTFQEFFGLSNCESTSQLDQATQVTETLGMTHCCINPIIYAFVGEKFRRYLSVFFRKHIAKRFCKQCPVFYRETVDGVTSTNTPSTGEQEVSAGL

[4] = target: T2, Marmoset monkey (Callithrix jacchus) …; test: cell binding, primary marmoset monocytes
[5] = target: T1, human CCR2; test: cell binding, primary human monocytes

B1: DOC2 chim. (antibody, human IgG1, kappa, V domains shown)
VH: EVQLVESGGGLVKPGGSLKLSCVASGFTLSNYAMSWVRQSPEKRLEWVAEVSSSGIYIYYSDTVTGRFSISRDNAKNTLYLEMSSLRSEDTAIYYCARDRYAYAMDYWGHGTSVIVSS
VL: DIVMTQSPSSLAISVGQRVTLSCKSSQSLLNSYNQKNSLAWYQQKPGQSPKLLVYFASTRESGVPDRFIGSGSGTYFTLTITSVQAGDLADYFCQQHYSNPRTFGGGTRLEIKR
Q: Does B1 bind [1]?
A: Result: binds

B2: DOC3-RHLXRKA (antibody, human IgG1, kappa, V domains shown)
VH: QVQLQESDPGLVKPSETLSLTCTVSGFSISRYDLSWIRQPPGKGLEWIGVIWTGGGTNYNSAFMSRLTISKDTSKNQVSLKLSSVTAADTAVYYCARENYYNRRGYFDVWGQGTMVTVSS
VL: EIVLTQSPATLSLSPGERATLSCSASSSVSYMHWFQQKPGQAPRLLIYLTSNLASGIPARFSGSGSGTDFTLTISSLEPEDFAVYYCQQRSGSPPTFGPGTKLDIKR
Q: Which results are given for B2?
A: binding result [2]: binds; binding result [3]: no binding

B3: DOC2-RHBXRKB (antibody, human IgG1, kappa, V domains shown)
VH: EVQLVESGGGVVQPGRSLRLSCAASGFTLSNYAMSWVRQAPGKGLEWVAEVSSSGIYIYYSDTVTGRFSISRDNSKNTLYLQMNSLRAEDTAVYYCARDRYAYAMDYWGQGTLVIVSS
VL: DIVMTQSPDSLAVSLGERATINCKSSQSLLNSYNQKNSLAWYQQKPGQPPKLLVYFASTRESGVPDRFSGSGSGTDFTLTISSLQAEDVAVYFCQQHYSNPRTFGGGTKLEIKR
notes: The number agrees with the antibody's name and was used
Q: Does B3 bind [4]?
A: Result: no binding

Q: Does B3 bind [5]?
A: Result: binds

B4: DOC2-RHAXRKA (antibody, human IgG1, kappa, V domains shown)
VH: EVQLVESGGGVVQPGRSLRLSCAASGFTLSNYAMSWVRQAPGKGLEWVAEVSSSGIYIYYSDTVTGRFTISRDNSKNTLYLQMNSLRAEDTAVYYCARDRYAYAMDYWGQGTLVTVSS
VL: DIVMTQSPDSLAVSLGERATINCKSSQSLLNSYNQKNSLAWYQQKPGQPPKLLIYFASTRESGVPDRFSGSGSGTDFTLTISSLQAEDVAVYYCQQHYSNPRTFGGGTKLEIKR
notes: also called DOC2-reshaped
Q: Does B4 bind [5]?
A: Result: binds

B5: DOC2-RHAXRKB (antibody, human IgG1, kappa, V domains shown)
VH: EVQLVESGGGVVQPGRSLRLSCAASGFTLSNYAMSWVRQAPGKGLEWVAEVSSSGIYIYYSDTVTGRFTISRDNSKNTLYLQMNSLRAEDTAVYYCARDRYAYAMDYWGQGTLVTVSS
VL: DIVMTQSPDSLAVSLGERATINCKSSQSLLNSYNQKNSLAWYQQKPGQPPKLLVYFASTRESGVPDRFSGSGSGTDFTLTISSLQAEDVAVYFCQQHYSNPRTFGGGTKLEIKR
Q: What does the source list for B5?
A: binding result [4]: no binding; binding result [5]: binds

B6: DOC2-RHBXRKA (antibody, human IgG1, kappa, V domains shown)
VH: EVQLVESGGGVVQPGRSLRLSCAASGFTLSNYAMSWVRQAPGKGLEWVAEVSSSGIYIYYSDTVTGRFSISRDNSKNTLYLQMNSLRAEDTAVYYCARDRYAYAMDYWGQGTLVIVSS
VL: DIVMTQSPDSLAVSLGERATINCKSSQSLLNSYNQKNSLAWYQQKPGQPPKLLIYFASTRESGVPDRFSGSGSGTDFTLTISSLQAEDVAVYYCQQHYSNPRTFGGGTKLEIKR
Q: Does B6 bind [4]?
A: Result: no binding

Q: Does B6 bind [5]?
A: Result: binds

B7: DOC2-RHBXRKC (antibody, human IgG1, kappa, V domains shown)
VH: EVQLVESGGGVVQPGRSLRLSCAASGFTLSNYAMSWVRQAPGKGLEWVAEVSSSGIYIYYSDTVTGRFSISRDNSKNTLYLQMNSLRAEDTAVYYCARDRYAYAMDYWGQGTLVIVSS
VL: DIVMTQSPDSLAVSLGERATINCKSSQSLLNSYNQKNSLAWYQQKPGQPPKLLVYFASTRESGVPDRFIGSGSGTYFTLTISSLQAEDVAVYFCQQHYSNPRTFGGGTKLEIKR
Q: Does B7 bind [4]?
A: Result: no binding

Q: Does B7 bind [5]?
A: Result: binds

B8: DOC3 chim. (antibody, human IgG1, kappa, V domains shown)
VH: QVQLKESGPGLVAPSQSLSITCTVSGFSLTRYDLSWIRQPPGKGLQWLGVIWTGGGTNYNSAFMSRLSIRKDNSKSQVFLKMNSLQTDDTAIYYCVRENYYNRRGYFDVWGAGTTVTVSS
VL: QIVLTQSPAIMSTSPGEKVTITCSASSSVSYMHWFQQKPGTSPKLWIYLTSNLASGVPARFSGSGSGTSYSLTINRMEAEDAATYYCQQRSGSPPTFGTGTKLELRR
Q: Does B8 bind [1]?
A: Result: binds

B9: DOC3-RH09XRKA (antibody, human IgG1, kappa, V domains shown)
VH: EVQLVESGGGLVQPGGSLRLSCAVSGFSLTRYDLSWVRQAPGKGLEWLGVIWTGGGTNYNSAFMSRFSISKDNSKNTVFLQMNSLRAEDTAVYYCARENYYNRRGYFDVWGQGTTVTVSS
VL: EIVLTQSPATLSLSPGERATLSCSASSSVSYMHWFQQKPGQAPRLLIYLTSNLASGIPARFSGSGSGTDFTLTISSLEPEDFAVYYCQQRSGSPPTFGPGTKLDIKR
Q: Does B9 bind [4]?
A: Result: no binding

Q: Does B9 bind [5]?
A: Result: binds

B10: DOC3-RH03XRKA (antibody, human IgG1, kappa, V domains shown)
VH: EVQLVESGGGLVQPGGSLRLSCAVSGFSLTRYDLSWVRQAPGKGLEWLGVIWTGGGTNYNSAFMSRLTISRDNSKNTLYLQMNSLRAEDTAVYYCVRENYYNRRGYFDVWGQGTTVTVSS
VL: EIVLTQSPATLSLSPGERATLSCSASSSVSYMHWFQQKPGQAPRLLIYLTSNLASGIPARFSGSGSGTDFTLTISSLEPEDFAVYYCQQRSGSPPTFGPGTKLDIKR
Q: Does B10 bind [3]?
A: Result: no binding

B11: DOC3-RH09XRKC (antibody, human IgG1, kappa, V domains shown)
VH: EVQLVESGGGLVQPGGSLRLSCAVSGFSLTRYDLSWVRQAPGKGLEWLGVIWTGGGTNYNSAFMSRFSISKDNSKNTVFLQMNSLRAEDTAVYYCARENYYNRRGYFDVWGQGTTVTVSS
VL: QIVLTQSPATLSLSPGERATLSCSASSSVSYMHWFQQKPGQAPRLLIYLTSNLASGVPARFSGSGSGTDFTLTISSLEPEDFAVYYCQQRSGSPPTFGPGTKLDIKR
Q: Does B11 bind [4]?
A: Result: no binding

Q: Does B11 bind [5]?
A: Result: binds

B12: DOC2-ChXRKA (antibody, human IgG1, kappa, V domains shown)
VH: EVQLVESGGGLVKPGGSLKLSCVASGFTLSNYAMSWVRQSPEKRLEWVAEVSSSGIYIYYSDTVTGRFSISRDNAKNTLYLEMSSLRSEDTAIYYCARDRYAYAMDYWGHGTSVIVSS
VL: DIVMTQSPDSLAVSLGERATINCKSSQSLLNSYNQKNSLAWYQQKPGQPPKLLIYFASTRESGVPDRFSGSGSGTDFTLTISSLQAEDVAVYYCQQHYSNPRTFGGGTKLEIKR
Q: Does B12 bind [4]?
A: Result: no binding
